Data on 3 substances can be found in article PMC5457526.

Experiment [1] addresses constitutive dimer mutant NT_(E79QE84QE119Q) of the E. australis MaSp1 N-terminal domain (Euprosthenops australis). The experiment in a line: SEC; Superdex 75, 2 mg ml^-1, 20 mM Tris, 150 mM NaCl, 1 mM EDTA, pH 8, room temperature; monomer to dimer. For orientation: Size exclusion chromatography separates by hydrodynamic size, large species first.
Experiment [2] has the same target. Nature of the experiment: SEC; Superdex 75, 2 mg ml^-1, 20 mM MES, 150 mM NaCl, 1 mM EDTA, pH 5.5, room temperature; monomer to dimer.
The target of experiment [3] is recombinant fragment human surfactant protein D (human). Nature of the experiment: SEC; Superdex 200, 1.5 mg ml^-1, 20 mM Tris, 150 mM NaCl, 1 mM EDTA, pH 8.
The target is the same in experiment [4]. Nature of the experiment: native MS; ESI-MS of SEC separated protein in 100 mM ammonium acetate, pH 7.5.
The target in experiment [5] is wild-type N-terminal domain (NT) of Euprosthenops australis major ampullate spidroin protein (MaSp) 1 (Euprosthenops australis). Nature of the experiment: SEC; Superdex 75, 2 mg ml^-1, 20 mM MES, 150 mM NaCl, 1 mM EDTA, pH 5.5, room temperature; monomer to dimer.

What is called stoichiometry N is a count of units in the complex or per binding partner. Consider “constitutive dimer mutant NT_(E79QE84QE119Q) of the E. australis MaSp1 N-terminal domain (domain or fragment)”, for which the stoichiometry N in experiment [1] and in experiment [2] was 2 each time.
Consider “recombinant fragment human surfactant protein D (domain or fragment)”, for which the stoichiometry N in experiment [3] and in experiment [4] was 3 throughout.
Regarding “wild-type N-terminal domain (NT) of Euprosthenops australis major ampullate spidroin protein (MaSp) 1 (domain or fragment)”, the stoichiometry N in experiment [5] was 2.
